In the supplement of paper PMC9170038:

System: MS2 coat protein
Test: apparent KD of MS2 coat protein; designed switch direction (-1 OFF switch, 1 ON switch): 1; higher = weaker reporter binding
Outline: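 Stalled E. coli RNA polymerase transcribed designed RNA switches on Illumina chips, which were then titrated with SNAP-549-labelled MS2 coat protein, doubling from 0.7 or 1.5 nM to 3 µM. Steps lasted from 0.8–1.5 h at the lowest concentration to 10–20 min at the highest. The apparent KD is each design's median over clusters of curve-fitted normalised fluorescence.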

[1] = input ligand: microRNA oligo, concentration not stated
[2] = Eterna round: R95, input ligand: FMN 200 uM
[3] = Eterna round: R95, input ligand: microRNA oligo, concentration not stated
[4] = Eterna round: R95, input ligand: none

With “UCGAGCGUACUUGCAGACAUGAGGAUCACCCAUGUAAAUGGGAAGGAUAUGGUACCGUUUCGGUACCAGAAGGUCCUAAGUGAU [salish99_SSNG3_r04_302] (Eterna round: R96, puzzle: Same State NG 3)” the “apparent KD of MS2 coat protein” value (input ligand: FMN 200 uM) was 574 nM, the “apparent KD of MS2 coat protein” value [1] was 465 nM and the “apparent KD of MS2 coat protein” value (input ligand: none) was 1200 nM.
With “UCGGGCGUACUUGCUGACAUGAGGAUCACCCAUGUGAUUGGGAAGGAUAUGGUUCCGUUUCGGUUCCAGAAGGUCCUGGGUGCU [salish99_SSNG3_r04_313] (Eterna round: R96, puzzle: Same State NG 3)” the “apparent KD of MS2 coat protein” value (input ligand: FMN 200 uM) was 482 nM, the “apparent KD of MS2 coat protein” value [1] was 459 nM and the “apparent KD of MS2 coat protein” value (input ligand: none) was 370 nM.
In the case of “UCGGGCGUACUUGCUGACAUGAGGAUCACCCAUGUGAUUGGGCAGGAUAUGGUUCCGUUUCGGUUCCAGAAGGUCCUCGGUGCU [salish99_SSNG3_r04_315] (Eterna round: R96, puzzle: Same State NG 3)”, the “apparent KD of MS2 coat protein” value (input ligand: FMN 200 uM) is reported as 593 nM, the “apparent KD of MS2 coat protein” value [1] is reported as 230 nM and the “apparent KD of MS2 coat protein” value (input ligand: none) is reported as 347 nM.
With “UCGGGCGUACUUGCUGACAUGAGGAUCACCCAUGUGUUUGGGAAGGAUAUGGUUCCGUUUCGGUUCCAGAAGGUCCUGGGUGCU [salish99_SSNG3_r04_314] (Eterna round: R96, puzzle: Same State NG 3)” the “apparent KD of MS2 coat protein” value (input ligand: FMN 200 uM) was 337 nM, the “apparent KD of MS2 coat protein” value [1] was 254 nM and the “apparent KD of MS2 coat protein” value (input ligand: none) was 246 nM.
With “UCUAUUGUGGUAGGAUAUCUAGGAUAUGGGAAGAGCUAAGCUUGGAAGUCACUUCACCCAGAAGGAGAGAAGGACCAGAGACUU [pwkr ssNG2 2FMN + F9.7] (Eterna round: R96, puzzle: Same State NG 2)” the “apparent KD of MS2 coat protein” value (input ligand: FMN 200 uM) was 1230 nM, the “apparent KD of MS2 coat protein” value [1] was 778 nM and the “apparent KD of MS2 coat protein” value (input ligand: none) was 475 nM.
In the case of “UCUGCAAGAACAGGAUAUGGGUUCAGAGCGCGAGUGCGCUUUGACACAUGAGGAUCACCCAUGUCCCAGAAGGGUUCAAGCGGC [Cexezadi] (Eterna round: R96, puzzle: Same State NG 2)”, the “apparent KD of MS2 coat protein” value (input ligand: FMN 200 uM) is reported as 30 nM, the “apparent KD of MS2 coat protein” value [1] is reported as 321 nM and the “apparent KD of MS2 coat protein” value (input ligand: none) is reported as 385 nM.
For “UCUUGGUUUUUGCUCGUUUUUUGUGUUGAACAUGAGGAUCACCCAUGUAUUGUACAAUCCAGUUUGAUAAUGGUCCG [JR_SHM208A_Sub045] (puzzle: Sensor for hsa-mir-208a)”, the “apparent KD of MS2 coat protein” value [2] was 140 nM, the “apparent KD of MS2 coat protein” value [3] was 112 nM and the “apparent KD of MS2 coat protein” value [4] was 167 nM.
With “UCUUGGUUUUUGCUCGUUUUUUGUGUUGAACAUGAGGAUCACCCAUGUAUUGUACAGUCCAGUUUAAUAAUGGUCCA [JMF 5] (puzzle: Sensor for hsa-mir-208a)” the “apparent KD of MS2 coat protein” value [2] was 33.9 nM, the “apparent KD of MS2 coat protein” value [3] was 24.6 nM and the “apparent KD of MS2 coat protein” value [4] was 48.8 nM.
“UCUUGGUUUUUGCUCGUUUUUUGUGUUGAACAUGAGGAUCACCCAUGUAUUGUACGGUCCAAUUUAAUAAUAAUCCG [JMF 64] (puzzle: Sensor for hsa-mir-208a)” was tested, and the “apparent KD of MS2 coat protein” value [2] was 28.8 nM, the “apparent KD of MS2 coat protein” value [3] was 21.9 nM and the “apparent KD of MS2 coat protein” value [4] was 30.6 nM.
For “UCUUGGUUUUUGCUCGUUUUUUGUGUUGAACAUGAGGAUCACCCAUGUAUUGUACGGUCCAAUUUAAUAAUGGUCCA [JMF 37] (puzzle: Sensor for hsa-mir-208a)”, the “apparent KD of MS2 coat protein” value [2] was 28.9 nM, the “apparent KD of MS2 coat protein” value [3] was 15.7 nM and the “apparent KD of MS2 coat protein” value [4] was 26.7 nM.
For “UCUUGGUUUUUGCUCGUUUUUUGUGUUGAACAUGAGGAUCACCCAUGUAUUGUACGGUCCAGUUUGGUAAUGGUCCG [JMF 35] (puzzle: Sensor for hsa-mir-208a)”, the “apparent KD of MS2 coat protein” value [2] was 25 nM, the “apparent KD of MS2 coat protein” value [3] was 14.9 nM and the “apparent KD of MS2 coat protein” value [4] was 26.4 nM.
In the case of “UCUUGGUUUUUGCUCGUUUUUUGUGUUGAACAUGAGGAUCACCCAUGUAUUGUACGGUCCGAUUUAAUAAUGGUCCG [JMF 22] (puzzle: Sensor for hsa-mir-208a)”, the “apparent KD of MS2 coat protein” value [2] is reported as 23.5 nM, the “apparent KD of MS2 coat protein” value [3] is reported as 14.4 nM and the “apparent KD of MS2 coat protein” value [4] is reported as 25.5 nM.
For “UCUUGGUUUUUGCUCGUUUUUUGUGUUGAACAUGAGGAUCACCCAUGUAUUGUACGGUCCGGUUUAAUAAUGGUCCG [JMF 12] (puzzle: Sensor for hsa-mir-208a)”, the “apparent KD of MS2 coat protein” value [2] was 25 nM, the “apparent KD of MS2 coat protein” value [3] was 14.7 nM and the “apparent KD of MS2 coat protein” value [4] was 26.3 nM.
With “UCUUGGUUUUUGCUCGUUUUUUGUGUUGAACAUGAGGAUCACCCAUGUAUUGUACGGUCCGGUUUAAUAGUGGUCCA [JMF 43] (puzzle: Sensor for hsa-mir-208a)” the “apparent KD of MS2 coat protein” value [2] was 95.4 nM, the “apparent KD of MS2 coat protein” value [3] was 59.8 nM and the “apparent KD of MS2 coat protein” value [4] was 105 nM.
In the case of “UCUUGGUUUUUGCUCGUUUUUUGUGUUGAACAUGAGGAUCACCCAUGUAUUGUACGGUCCGGUUUAGUAGUGGUCCG [JMF 17] (puzzle: Sensor for hsa-mir-208a)”, the “apparent KD of MS2 coat protein” value [2] is reported as 25.7 nM, the “apparent KD of MS2 coat protein” value [3] is reported as 16.6 nM and the “apparent KD of MS2 coat protein” value [4] is reported as 30.4 nM.
For “UCUUGGUUUUUGCUCGUUUUUUGUGUUGAACAUGAGGAUCACCCAUGUAUUGUACGGUCCGGUUUGGUAGUGGUCCG [JMF 16] (puzzle: Sensor for hsa-mir-208a)”, the “apparent KD of MS2 coat protein” value [2] was 41 nM, the “apparent KD of MS2 coat protein” value [3] was 29.4 nM and the “apparent KD of MS2 coat protein” value [4] was 53.6 nM.
“UGAACCUUCACAGGAUAUCAUGCGAAAAUUGCGUGAGAAGGGUGAAUGUGGUGUUCAUAGUUGCACAUGAGGAUCACCCAUGUA [SameState NG1 #52] (Eterna round: R96, puzzle: Same State NG 1)” was tested, and the “apparent KD of MS2 coat protein” value (input ligand: FMN 200 uM) was 107 nM, the “apparent KD of MS2 coat protein” value [1] was 135 nM and the “apparent KD of MS2 coat protein” value (input ligand: none) was 156 nM.
In the case of “UGAAUAAUGUUAGGAUAUACAUGAGGAAUCCUCGUAGAAGGAACAUGACAUGAGGAUCACCCAUGUAGCGCUCAGAAGAGCGCA [Mat - Same State NG 1 - JL mod - D50] (Eterna round: R96, puzzle: Same State NG 1)”, the “apparent KD of MS2 coat protein” value [1] is reported as 73.4 nM.
“UGAAUAGUGAUAGGAUAUACAUGAGGAAUCCUCGUAGAAGGAUCACGACAUGAGGAUCACCCAUGUAGCCGUCAGAAGACGGCA [Mat - Same State NG 1 - JL mod - D60] (Eterna round: R96, puzzle: Same State NG 1)” was tested, and the “apparent KD of MS2 coat protein” value (input ligand: FMN 200 uM) was 450 nM, the “apparent KD of MS2 coat protein” value [1] was 345 nM and the “apparent KD of MS2 coat protein” value (input ligand: none) was 2610 nM.
“UGAAUAGUUACAGGAUAUGAGCCGUAAAUUGGGUCAGAAGGGUGGGUGUUCUGCGCGGUGUGUUACAUGAGGAUCACCCAUGUU [SameState NG1 #30] (Eterna round: R96, puzzle: Same State NG 1)” was tested, and the “apparent KD of MS2 coat protein” value (input ligand: FMN 200 uM) was 245 nM, the “apparent KD of MS2 coat protein” value [1] was 99.8 nM and the “apparent KD of MS2 coat protein” value (input ligand: none) was 244 nM.
In the case of “UGAAUAGUUACAGGAUAUGAGUUGUAAAUUGGGUCAGAAGGGUGGGUGUUCUGCGCGGUGUGUUACAUGAGGAUCACCCAUGUU [SameState NG1 #29] (Eterna round: R96, puzzle: Same State NG 1)”, the “apparent KD of MS2 coat protein” value (input ligand: FMN 200 uM) is reported as 504 nM, the “apparent KD of MS2 coat protein” value [1] is reported as 182 nM and the “apparent KD of MS2 coat protein” value (input ligand: none) is reported as 377 nM.
In the case of “UGAAUAGUUACAGGAUAUGAGUUGUAAAUUGGGUCAGAAGGGUGGGUGUUUUGCGCGGUGUGUUACAUGAGGAUCACCCAUGUU [SameState NG1 #28] (Eterna round: R96, puzzle: Same State NG 1)”, the “apparent KD of MS2 coat protein” value (input ligand: FMN 200 uM) is reported as 81.8 nM, the “apparent KD of MS2 coat protein” value [1] is reported as 75.1 nM and the “apparent KD of MS2 coat protein” value (input ligand: none) is reported as 122 nM.
“UGAAUGGUGAUAGGAUAUACAUGAGGAAUCCUCGUAGAAGGAUCACGACAUGAGGAUCACCCAUGUAGCCGUCCGUAGACGGCC [salish99_SSNG1_r04_002] (Eterna round: R96, puzzle: Same State NG 1)” was tested, and the “apparent KD of MS2 coat protein” value [1] was 89.6 nM.
In the case of “UGCAUACAUGAGGAUCACCCAUGUCAACUUAGUCGAGGAUAUGGGCAGCCGUGAGGCGAACCAGAAGGCGAAUUGU [JL-ss1-3.02 ViennaUCT mod] (puzzle: Same State 1)”, the “apparent KD of MS2 coat protein” value [2] is reported as 18.5 nM, the “apparent KD of MS2 coat protein” value [3] is reported as 43.8 nM and the “apparent KD of MS2 coat protein” value [4] is reported as 45.7 nM.
For “UGCCUGAGUCGAGGAUAUUAUGGAUCCUCUAAUACAUGAGGAUCACCCAUGUAAUUAAUUAUACAUGAGAAGGUGACUCAGGCU [SSNG2/12-B1] (Eterna round: R96, puzzle: Same State NG 2)”, the “apparent KD of MS2 coat protein” value [1] was 293 nM.
With “UGCCUGAGUCGAGGAUAUUAUGGAUCCUUUAAUACAUGAGGAUCACCCAUGUAAUUAAUUAUACAUGAGAAGGUGACUCAGGCU [SSNG2/11-B3] (Eterna round: R96, puzzle: Same State NG 2)” the “apparent KD of MS2 coat protein” value (input ligand: FMN 200 uM) was 24.3 nM, the “apparent KD of MS2 coat protein” value [1] was 194 nM and the “apparent KD of MS2 coat protein” value (input ligand: none) was 253 nM.
In the case of “UGCGGAUAACAGUAGGAUAUGGUCAACGCCACAUGAGGAUCACCCAUGUCGUACCGGCACCUGGACUAGAAGGACUGCCUCCCGC [Esleberi] (puzzle: Same State 2)”, the “apparent KD of MS2 coat protein” value [2] is reported as 11.6 nM, the “apparent KD of MS2 coat protein” value [3] is reported as 26.4 nM and the “apparent KD of MS2 coat protein” value [4] is reported as 38 nM.
With “UGCUACGGAGACAUGAGGAUCACCCAUGUCGCUGCUUAAGGGCAGGAUAUGAAAGGGAAUCCCAAUCAGAAGGGCCGCAGCCAC [Isanxeanor] (Eterna round: R96, puzzle: Same State NG 3)” the “apparent KD of MS2 coat protein” value (input ligand: FMN 200 uM) was 35.3 nM, the “apparent KD of MS2 coat protein” value [1] was 22.8 nM and the “apparent KD of MS2 coat protein” value (input ligand: none) was 32.6 nM.
